According to PMC10397247:
Each block holds one binder with its values, some of them ahead of it.

Tests used:
[1] = target: T1, 4H906-bH; assay: two-hybrid library CCNG1;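 also: natural log of median RNA to DNA barcode read ratio; higher means stronger binding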
T1 chain: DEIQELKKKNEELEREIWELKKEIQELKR

[2] = target: T2, 4H850-bH; assay: two-hybrid library CCNG1;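 also: natural log of median RNA to DNA barcode read ratio; higher means stronger binding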
T2 chain: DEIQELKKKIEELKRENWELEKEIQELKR

[3] = target: T3, 4H3974-bH; assay: two-hybrid library CCNG1;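 also: natural log of median RNA to DNA barcode read ratio; higher means stronger binding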
T3 chain: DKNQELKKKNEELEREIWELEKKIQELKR

[4] = target: T4, 4H570-bH; assay: two-hybrid library CCNG1;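 also: natural log of median RNA to DNA barcode read ratio; higher means stronger binding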
T4 chain: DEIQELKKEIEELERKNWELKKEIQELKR

[5] = target: T5, 4H584-bH; assay: two-hybrid library CCNG1;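 also: natural log of median RNA to DNA barcode read ratio; higher means stronger binding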
T5 chain: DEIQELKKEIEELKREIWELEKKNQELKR

[6] = target: T6, 4H619-bH; assay: two-hybrid library CCNG1;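 also: natural log of median RNA to DNA barcode read ratio; higher means stronger binding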
T6 chain: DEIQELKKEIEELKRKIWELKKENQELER

[7] = target: T7, 4H3446-AA; assay: two-hybrid library CCmax; settings: mean of both orientations
T7 chain: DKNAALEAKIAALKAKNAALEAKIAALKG

[8] = target: T8, 4H3666-AA; assay: two-hybrid library CCmax; settings: mean of both orientations
T8 chain: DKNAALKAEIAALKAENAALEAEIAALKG

[9] = target: T9, 4H3591-AA; assay: two-hybrid library CCmax; settings: mean of both orientations
T9 chain: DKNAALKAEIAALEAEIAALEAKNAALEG

[10] = target: T10, 4H478-AA; assay: two-hybrid library CCmax; settings: mean of both orientations
T10 chain: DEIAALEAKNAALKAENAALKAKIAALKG

[11] = target: T11, 4H3709-AA; assay: two-hybrid library CCmax; settings: mean of both orientations
T11 chain: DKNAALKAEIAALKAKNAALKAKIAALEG

[12] = target: T12, 4H497-AA; assay: two-hybrid library CCmax; settings: mean of both orientations
T12 chain: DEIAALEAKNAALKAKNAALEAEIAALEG

[13] = target: T13, 4H3939-AA; assay: two-hybrid library CCmax; settings: mean of both orientations
T13 chain: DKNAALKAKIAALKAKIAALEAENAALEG

[14] = target: T14, 4H391-AA; assay: two-hybrid library CCmax; settings: mean of both orientations
T14 chain: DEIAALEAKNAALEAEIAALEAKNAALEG

[15] = target: T15, 4H3102-AA; assay: two-hybrid library CCmax; settings: mean of both orientations
T15 chain: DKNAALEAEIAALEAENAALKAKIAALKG

[16] = target: T16, 4H3066-AA; assay: two-hybrid library CCmax
T16 chain: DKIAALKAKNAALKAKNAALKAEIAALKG

[17] = target: T17, 4H3417-AA; assay: two-hybrid library CCmax; settings: mean of both orientations
T17 chain: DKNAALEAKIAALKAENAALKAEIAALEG

[18] = target: T18, 4H428-AA; assay: two-hybrid library CCmax; settings: mean of both orientations
T18 chain: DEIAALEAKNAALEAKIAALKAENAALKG

[19] = target: T19, 4H3920-AA; assay: two-hybrid library CCmax; settings: mean of both orientations
T19 chain: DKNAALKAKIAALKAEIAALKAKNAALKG

[20] = target: T20, 4H971-AA; assay: two-hybrid library CCmax; settings: mean of both orientations
T20 chain: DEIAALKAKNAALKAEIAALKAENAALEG

[21] = target: T21, 4H675-AA; assay: two-hybrid library CCmax; settings: mean of both orientations
T21 chain: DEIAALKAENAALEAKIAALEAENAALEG

[22] = target: T22, 4H656-AA; assay: two-hybrid library CCmax; settings: mean of both orientations
T22 chain: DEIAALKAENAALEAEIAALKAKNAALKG

[23] = target: T23, 4H3628-AA; assay: two-hybrid library CCmax; settings: mean of both orientations
T23 chain: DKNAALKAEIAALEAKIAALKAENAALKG

[24] = target: T24, 4H3121-AA; assay: two-hybrid library CCmax; settings: mean of both orientations
T24 chain: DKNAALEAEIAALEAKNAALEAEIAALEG

[25] = target: T25, 4H968-bH; assay: two-hybrid library CCNG1
T25 chain: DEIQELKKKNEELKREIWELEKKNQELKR

[26] = target: T26, 4H918-bH; assay: two-hybrid library CCNG1
T26 chain: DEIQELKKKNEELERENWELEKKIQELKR

[27] = target: T27, 4H754-bH; assay: two-hybrid library CCNG1
T27 chain: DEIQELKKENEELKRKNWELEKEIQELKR

[28] = target: T28, 4H855-bH; assay: two-hybrid library CCNG1
T28 chain: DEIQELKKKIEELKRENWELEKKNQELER

[29] = target: T29, 4H683-bH; assay: two-hybrid library CCNG1
T29 chain: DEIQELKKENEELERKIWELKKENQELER

[30] = target: T30, 4H797-bH; assay: two-hybrid library CCNG1
T30 chain: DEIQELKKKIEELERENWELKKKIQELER

[31] = target: T31, 4H780-bH; assay: two-hybrid library CCNG1
T31 chain: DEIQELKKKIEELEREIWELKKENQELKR

[32] = target: T32, 4H949-bH; assay: two-hybrid library CCNG1
T32 chain: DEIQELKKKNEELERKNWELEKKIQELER

[33] = target: T33, 4H953-bH; assay: two-hybrid library CCNG1
T33 chain: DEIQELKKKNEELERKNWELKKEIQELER

[34] = target: T34, 4H492-bA; assay: two-hybrid library CCNG1
T34 chain: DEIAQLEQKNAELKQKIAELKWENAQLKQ

[35] = target: T35, 4H477-bA; assay: two-hybrid library CCNG1
T35 chain: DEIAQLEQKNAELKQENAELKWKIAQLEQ

[36] = target: T36, 4H741-bA; assay: two-hybrid library CCNG1
T36 chain: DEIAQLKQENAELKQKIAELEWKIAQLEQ

[37] = target: T37, 4H72-bN; assay: two-hybrid library CCNG1
T37 chain: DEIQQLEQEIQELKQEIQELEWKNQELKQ

[38] = target: T38, 4H754-bN; assay: two-hybrid library CCNG1
T38 chain: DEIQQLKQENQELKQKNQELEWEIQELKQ

[39] = target: T39, 4H968-bN; assay: two-hybrid library CCNG1
T39 chain: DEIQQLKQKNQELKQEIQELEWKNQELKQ

[40] = target: T40, 4H797-bN; assay: two-hybrid library CCNG1
T40 chain: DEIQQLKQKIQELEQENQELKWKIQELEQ

[41] = target: T41, 4H855-bN; assay: two-hybrid library CCNG1
T41 chain: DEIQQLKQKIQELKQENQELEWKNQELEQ

[42] = target: T42, 4H683-bN; assay: two-hybrid library CCNG1
T42 chain: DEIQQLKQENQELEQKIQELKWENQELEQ

[43] = target: T43, 4H780-bN; assay: two-hybrid library CCNG1
T43 chain: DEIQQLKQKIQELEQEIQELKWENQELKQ

[44] = target: T44, 4H918-bN; assay: two-hybrid library CCNG1
T44 chain: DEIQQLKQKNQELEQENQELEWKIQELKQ

[45] = target: T45, 4H953-bN; assay: two-hybrid library CCNG1
T45 chain: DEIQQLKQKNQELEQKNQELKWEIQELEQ

[46] = target: T46, 4H626-bH; assay: two-hybrid library CCNG1
T46 chain: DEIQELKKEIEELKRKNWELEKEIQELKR

[47] = target: T47, 4H906-bA; assay: two-hybrid library CCNG1
T47 chain: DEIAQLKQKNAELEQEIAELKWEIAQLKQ

[48] = target: T48, 4H626-bA; assay: two-hybrid library CCNG1
T48 chain: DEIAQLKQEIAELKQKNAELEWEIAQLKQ

[49] = target: T49, 4H967-AA; assay: two-hybrid library CCmax
T49 chain: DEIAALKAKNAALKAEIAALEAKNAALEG

[50] = target: T50, 4H575-bH; assay: two-hybrid library CCNG1
T50 chain: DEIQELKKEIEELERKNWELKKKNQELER

[51] = target: GCN2_T; assay: two-hybrid library CCmax
[52] = target: T51, 4H43-AA; assay: two-hybrid library CCmax
T51 chain: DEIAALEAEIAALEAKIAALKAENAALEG

[53] = target: T52, 4H510-AA; assay: two-hybrid library CCmax; settings: mean of both orientations
T52 chain: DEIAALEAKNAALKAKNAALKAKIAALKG

[54] = target: T53, O13-AA; assay: two-hybrid library CCmax; settings: mean of both orientations
T53 chain: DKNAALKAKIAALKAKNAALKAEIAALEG

[55] = target: T54, O11-AA; assay: two-hybrid library CCmax; settings: mean of both orientations
T54 chain: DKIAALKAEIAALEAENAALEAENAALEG

[56] = target: T55, O14-AA; assay: two-hybrid library CCmax; settings: mean of both orientations
T55 chain: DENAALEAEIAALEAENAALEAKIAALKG

[57] = target: T56, 4H451-AA; assay: two-hybrid library CCmax; settings: mean of both orientations
T56 chain: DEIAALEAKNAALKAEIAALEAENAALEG

[58] = target: T57, 4H_APH; assay: two-hybrid library CCmax; settings: mean of both orientations
T57 chain: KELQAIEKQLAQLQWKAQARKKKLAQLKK

[59] = target: T58, 4H_BCR; assay: two-hybrid library CCmax; settings: mean of both orientations
T58 chain: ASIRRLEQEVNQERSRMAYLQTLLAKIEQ

Binder: DEIAQLEQKNAELKQENAELKWKIAQLEQ [4H477-bA]
interaction score [34]: -0.749
interaction score [35]: -0.249
interaction score [36]: -1.37
interaction score [37]: -3.66

Binder: DEIQELKKEIEELERKNWELKKEIQELKR [4H570-bH]
interaction score [1]: 0.224
interaction score [2]: 1.01
interaction score [4]: 1.19
interaction score [5]: -1.16
interaction score [6]: -0.75

Binder: DEIQELKKEIEELKREIWELEKKNQELKR [4H584-bH]
interaction score [1]: 0.202
interaction score [2]: 0.297
interaction score [5]: 1.18
interaction score [6]: 1.2

Binder: DEIQELKKEIEELERKNWELKKKNQELER [4H575-bH]
interaction score [25]: -1.01
interaction score [26]: -0.438
interaction score [27]: -0.631
interaction score [50]: -0.14
interaction score [28]: 1.37
interaction score [29]: -0.243
interaction score [30]: -0.434
interaction score [31]: -0.754
interaction score [33]: -0.118

Binder: DEIAALEAEIAALEAKIAALKAENAALEG [4H43-AA]
interaction score [51]: -1.41
interaction score [52]: 1.54
interaction score [53]: -0.823
interaction score [54]: 0.246
interaction score [55]: -0.943
interaction score [56]: -0.845
interaction score [57]: -1.31
interaction score [58]: -0.887
interaction score [59]: -1.44

Continued, values first:

interaction score [1]: -0.332
interaction score [2]: -0.0332
interaction score [3]: -0.338
interaction score [4]: -0.965
interaction score [5]: -0.203
interaction score [6]: -0.167
Binder: DKNQELKKKNEELEREIWELEKKIQELKR [4H3974-bH]

interaction score [7]: -1.7
interaction score [8]: 0.0105
interaction score [9]: -1.59
interaction score [10]: 1.25
interaction score [11]: -1.94
interaction score [12]: -0.971
interaction score [13]: -2.16
interaction score [14]: -1.09
interaction score [15]: 0.0998
interaction score [16]: -0.506
interaction score [17]: -2.18
interaction score [18]: -1.26
interaction score [19]: -1.87
interaction score [20]: -1.81
interaction score [21]: -1.19
interaction score [22]: 0.231
interaction score [23]: -1.85
interaction score [24]: -0.941
Binder: DKIAALKAKNAALKAKNAALKAEIAALKG [4H3066-AA]

interaction score [25]: 1.12
interaction score [26]: -1.01
interaction score [27]: -0.187
interaction score [28]: -0.174
interaction score [29]: 0.562
interaction score [30]: -0.161
interaction score [31]: -0.661
interaction score [32]: -0.385
interaction score [33]: -1.23
Binder: DEIQELKKENEELERKIWELKKENQELER [4H683-bH]

interaction score [38]: -1.46
interaction score [39]: 1.51
interaction score [40]: 0.0127
interaction score [41]: -0.411
interaction score [42]: -0.0866
interaction score [43]: -0.606
interaction score [44]: -0.318
interaction score [45]: -0.218
Binder: DEIQQLKQENQELEQKIQELKWENQELEQ [4H683-bN]

interaction score [1]: -0.349
interaction score [46]: 0.932
Binder: DEIQELKKEIEELKRKNWELEKEIQELKR [4H626-bH]

interaction score [47]: -1.23
interaction score [48]: 0.86
Binder: DEIAQLKQEIAELKQKNAELEWEIAQLKQ [4H626-bA]

interaction score [49]: -0.481
Binder: DEIAALKAKNAALKAEIAALEAKNAALEG [4H967-AA]
